The source of these data is patent US20210277061A1 (UNIVERSITY OF HONG KONG, published 2021).

The Kd is the concentration at which binding is half-saturated. Higher therefore signals weaker binding. The term IC50 denotes the point on the concentration scale where inhibition reaches its midpoint.

In assay [1] the target is T1, AF9 YEATS domain, His-AF9 (1-138) (human, UniProt P42568 1-138).
T1 construct: Expressed in E. coli; not shown: His tag
T1 sequence (looked up): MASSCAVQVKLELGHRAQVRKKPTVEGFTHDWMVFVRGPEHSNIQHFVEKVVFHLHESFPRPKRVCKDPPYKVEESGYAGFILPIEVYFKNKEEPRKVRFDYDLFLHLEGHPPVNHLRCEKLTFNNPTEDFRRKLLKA
The assay is described as follows: photo-cross-linking competition screen at 0.3 µM, in-gel fluorescence.

Assay [2] addresses T1, AF9 YEATS domain, His-AF9 (1-138). The assay is described as follows: ITC. A general note: In ITC the heat of successive injections is recorded.
The target is the same in assay [3]. The assay is described as follows: ITC. The source holds these as a separate data set.
The target is the same in assay [4]. The assay is described as follows: photo-cross-linking competition vs photoaffinity probe, in-gel fluorescence.
The target is the same in assay [5]. Description: method and target not named in the sentence (AF9 YEATS by context).
Assay [6] has as its target T2, YEATS2 YEATS domain, His-SUMO-YEATS2 (201-332) (human, UniProt Q9ULM3 201-332).
T2 construct: range 201-332; Expressed in E. coli; also called YEATS2 domain; not shown: His-SUMO tag
T2 sequence (looked up): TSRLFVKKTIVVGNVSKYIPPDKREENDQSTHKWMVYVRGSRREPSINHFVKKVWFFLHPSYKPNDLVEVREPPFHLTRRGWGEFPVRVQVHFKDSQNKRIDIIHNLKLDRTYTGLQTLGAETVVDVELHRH
Description: photo-cross-linking competition vs photoaffinity probe, in-gel fluorescence.

For assay [7], the target named is T3, Gas41 YEATS domain, His-Gas41 (15-159) (human, UniProt O95619 15-159).
T3 construct: Expressed in E. coli; not shown: His tag
T3 sequence (O95619 15-159 limits assumed): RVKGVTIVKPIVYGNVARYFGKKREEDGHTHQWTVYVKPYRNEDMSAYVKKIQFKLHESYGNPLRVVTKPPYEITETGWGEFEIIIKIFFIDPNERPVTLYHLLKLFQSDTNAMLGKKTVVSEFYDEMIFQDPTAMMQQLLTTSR
The assay is described as above.

Assay [8] addresses T1, AF9 YEATS domain, His-AF9 (1-138). Described as above. This is another data set of the same source.
Assay [9] concerns the target T2, YEATS2 YEATS domain, His-SUMO-YEATS2 …. The description is as above. The source holds these as a separate data set.
In assay [10] the target is T3, Gas41 YEATS domain, His-Gas41 (15-159). The description is as above. The source holds these as a separate data set.
For assay [11], the target named is T4, ENL YEATS domain, His-SUMO-ENL (1-138) (human, UniProt Q03111 1-138).
T4 construct: Expressed in E. coli; not shown: His-SUMO tag
T4 sequence (looked up): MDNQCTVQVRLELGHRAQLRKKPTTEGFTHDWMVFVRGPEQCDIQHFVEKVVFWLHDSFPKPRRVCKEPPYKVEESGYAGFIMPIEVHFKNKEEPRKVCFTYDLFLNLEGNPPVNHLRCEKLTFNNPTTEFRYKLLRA
Described as above.

In assay [12] the target is T4, ENL YEATS domain, His-SUMO-ENL (1-138). Described as above. The source holds these as a separate data set.
Assay [13] has as its target T2, YEATS2 YEATS domain, His-SUMO-YEATS2 …. The assay is described as follows: photo-cross-linking-based competition against the photoaffinity probe on the YEATS2 YEATS domain, in-gel fluorescence.
In assay [14] the target is T1, AF9 YEATS domain, His-AF9 (1-138). The assay is described as follows: photo-cross-linking-based competition against the photoaffinity probe (probe 1) on AF9 YEATS domain, in-gel fluorescence.

Where two headings read alike, the source gives them in different places. No end group written: not given here. *: point of attachment. Oxazole(5-CO) = O=C(c1cnco1)*; Crotonyl(E) = C/C=C/C(=O)*; 2Furoyl = O=C(c1ccco1)*; Cbz = O=C(OCc1ccccc1)*

B1: compound 43 (competitor R8-K) (peptide)
peptide: Cbz-QTAKK(2Furoyl)-NH2
SMILES: C[C@H](NC(=O)[C@@H](NC(=O)[C@H](CCC(N)=O)NC(=O)OCc1ccccc1)[C@@H](C)O)C(=O)N[C@@H](CCCCN)C(=O)N[C@@H](CCCCNC(=O)c1ccco1)C(N)=O
notes: Full structure only as drawing
With B1, the binding result in assay [1] is reported as “binds”.

B2: compound 45 (competitor R8-Q) (peptide)
peptide: Cbz-QTAQK(2Furoyl)-NH2
SMILES: C[C@H](NC(=O)[C@@H](NC(=O)[C@H](CCC(N)=O)NC(=O)OCc1ccccc1)[C@@H](C)O)C(=O)N[C@@H](CCC(N)=O)C(=O)N[C@@H](CCCCNC(=O)c1ccco1)C(N)=O
notes: as for B1
On to B2, for which the binding result in assay [1] was “binds”.

B3: compound 13 (XL-13) (peptide)
peptide: KQTARK(Oxazole(5-CO))STGG-NH2
modifications: N-terminus assumed
SMILES: C[C@H](NC(=O)[C@@H](NC(=O)[C@H](CCC(N)=O)NC(=O)[C@@H](N)CCCCN)[C@@H](C)O)C(=O)N[C@@H](CCCNC(=N)N)C(=O)N[C@@H](CCCCNC(=O)c1cnco1)C(=O)N[C@@H](CO)C(=O)N[C@H](C(=O)NCC(=O)NCC(N)=O)[C@@H](C)O
notes: also called 4.13
As to B3, in [2], the “fold binding enhancement over the native crotonyl group (H3K9cr)” value came to 14.8 fold. Besides, in assay [3], the dissociation constant (Kd) stood at 1 µM, the “N (sites)” value turned out to be 1.04 sites, the ΔH was -12300 cal/mol and the ΔS was -13.8 cal/mol/deg. This molecule also had an IC50 in assay [4] of 740 nM.
As to Cbz-QTARK(Oxazole(5-CO))-NH2 (also called 4.13a) [compound 27 (XL-13a)], the Kd in assay [5] worked out at 131 nM. Also, the IC50 in assay [4] worked out at 240 nM; in [6], 98.7 µM; in assay [7] it was 14.5 µM; in [8], 240 nM; in assay [9], 98.7 µM; in assay [10] it was 14.5 µM.

B4: compound 85 (positive control), H3K9cr peptide (peptide)
peptide: KQTARK(Crotonyl(E))STGG-NH2
modifications: N-terminus assumed
SMILES: C/C=C/C(=O)NCCCC[C@H](NC(=O)[C@H](CCCNC(=N)N)NC(=O)[C@H](C)NC(=O)[C@@H](NC(=O)[C@H](CCC(N)=O)NC(=O)[C@@H](N)CCCCN)[C@@H](C)O)C(=O)N[C@@H](CO)C(=O)N[C@H](C(=O)NCC(=O)NCC(N)=O)[C@@H](C)O
In assay [2], B4 yielded an equilibrium dissociation constant (Kd) of 14.8 µM. In assay [3], binding was put at a Kd of 14.7 µM, the “N (sites)” value was 0.96 sites, the ΔH is -11900 cal/mol and the ΔS was -17.8 cal/mol/deg. Further, the IC50 in [4] is 6000 nM. This molecule also gave an IC50 in assay [11] of 52.7 µM.

B5: compound 26 (XL-07j) (peptide)
peptide: Cbz-QTARK(2Furoyl)-NH2
SMILES: C[C@H](NC(=O)[C@@H](NC(=O)[C@H](CCC(N)=O)NC(=O)OCc1ccccc1)[C@@H](C)O)C(=O)N[C@@H](CCCNC(=N)N)C(=O)N[C@@H](CCCCNC(=O)c1ccco1)C(N)=O
notes: also called 4.7j
Turning to B5, binding in assay [5] was characterised by a dissociation constant (Kd) of 330 nM. The IC50 worked out at 260 nM in [4]; 1.3 µM in [11]; 42.4 µM in assay [6]; 123 µM in [7]; 260 nM in [8]; 1300 nM in assay [12]. The IC50 turned out to be 42.4 µM in assay [9], 123 µM in [10] and 42.2 µM in [13].

B6: compound 1 (XL-01) (peptide)
peptide: KQTARKSTGG-NH2
modifications: not fully specified (residue 6); also: Lys6 acylated with group R, structure drawing only
notes: also called 4.1
Turning to B6, the IC50 in [4] was 27900 nM; in assay [14], 31.8 µM.
